Patent publication EP1113813B1
Values joined by “and” are separate entries in the source; they are usually repeats but may differ in a detail not shown here. Identical values can stand only once.

Legend:
[1] = biological target: Zot binding sites (surface receptor) on human monocytes/macrophages (CD14+) (human); assay: flow cytometry, MESF calibration, several volunteers
[2] = biological target: Zot binding sites on human T lymphocytes (CD3+) (human); assay: as above
[3] = biological target: Zot binding sites on human T lymphocytes (CD3+) (human); assay: real-time flow cytometry at 37°C, Zot-FITC 40 µg/ml, CD3 gate
[4] = biological target: Zot binding sites (surface receptor) on human monocytes/macrophages (CD14+) (human); assay: real-time flow cytometry at 37°C, Zot-FITC 40 µg/ml, CD14 gate
[5] = biological target: Zot binding sites (surface receptor) on human monocytes/macrophages (CD14+) (human); assay: flow cytometry, increasing concentrations of Zot-FITC on human PBMC
[6] = biological target: Zot binding sites on human T lymphocytes (CD3+) (human); assay: as above
[7] = biological target: Zot binding sites (surface receptor) on human monocytes/macrophages (CD14+) (human); assay: 4-color flow cytometry, 40 µg/ml Zot-FITC, 30 min at 37°C, CD14+ gate
[8] = biological target: Zot binding sites (surface receptor) on human monocytes/macrophages (CD14+) (human); assay: flow cytometry, MFI converted with Quantum 26 MESF kit, saturation conditions
[9] = biological target: Zot binding sites on human T lymphocytes (CD3+) (human); assay: as above
[10] = biological target: Zot binding sites (surface receptor) on human monocytes/macrophages (CD14+) (human); assay: flow cytometry; […] (10 µl); […]
[11] = biological target: Zot binding sites on human T lymphocytes (CD3+) (human); assay: flow cytometry; […] (10 µl); […]
[12] = biological target: Zot binding sites (surface receptor) on human monocytes/macrophages (CD14+) (human)

“Zot-FITC (6xHis-Zot fusion protein conjugated to fluorescein isothiocyanate, Examples 4-7) (from UniProt P38442 1-399) (ligand)” was tested, and the Zot binding sites/cell (mean of several volunteers) [1] was 105000 sites/cell, the Zot binding sites/cell (mean of several volunteers) [2] was 10700 sites/cell and the time to reach equilibrium [3] was under 2 min. The time to reach equilibrium [4] was under 2 min, the concentration at which saturation is reached [5] was 0.5 pM and the concentration at which saturation is reached [6] was 0.5 pM. For the same substance, the fold binding against T or B lymphocytes [7] was 5 fold and 8 fold, the Zot-binding sites/cell [8] was 106000 sites/cell and the Zot-binding sites/cell [9] was 9000 sites/cell.
“purified Zot (cleaved from MBP-Zot with Factor Xa, Example 1) (from UniProt P38442 9-399) (ligand)” gave a percent decrease of Zot-FITC binding [10] of 33% and a percent decrease of Zot-FITC binding [11] of 33%.
In the case of “6xHis-Zot fusion protein (purified Zot, unlabeled) (from UniProt P38442 1-399) (ligand)”, the percent suppression of Zot-FITC mean fluorescence intensity [12] is reported as 24% and 43%.
